Test results from article PMC2115935.

Target: integral membrane proteins of stripped rat liver cell membranes (rat (endogenous in liver))
Experiment: co-sedimentation

Actin, isolated from rabbit skeletal muscle, 125I-labeled (from UniProt P68135 1-377) (natural protein)
Kd: 1600 nM
